Measurements: the DeepSol protein solubility set

Assay: soluble on expression in E. coli; label from the status in PepcDB or PDB records

Row | Sequence | soluble on expression in E. coli
1 | MSLTILQELPKLSPLPARKLGSYTCKTVHMTTTELLPFHAVGTSPDAAAQADSNIETQFANVLHSLQVNKQRDPFDIIQDFKQICADRALSTRDKLSLDESNTALAEEFDNWDLEFKLWELVDRLFRFRALFSNKAKTELLREYDFSSMGIKQENFLRKNPAIRELSIIILWLQSHTPSLVGDETESYQTKWKNTAMAVANSDFDVLASRATDADLIDKLDIDAPLRSNRSIHPADESNDSKVFAQIYKLLLQDRVQDAIDIANNTGNYALALILVGATQEYFDPVLDKQDLDFDSIVAEQTKPSGIKHKLLWKKTVYKLSQQANLNKYEKLIYNYLCGGDISGNLLVASDDWEQTLLLYLSQLYSYNIDNFIVSQLSSEQEILPVNIPKPQLNTIAEILNTILHSGNLLTQQSENPLRVIMGSVMLDNVPSLLHNLTSSLTGEPEALKKPYISRVLTHLAIFQLLVVGTDNINNEDITTIITSYTSKLAEYKLPELIPIYLSFVPNEKDSREAYALFLSSLTDSSDRSKQIEISRRIANSISEVDEAMELAANTQEDKMMNVLRRTVERVMKDTESHYKPQAVIEVQDDINSVDDIDSKLYHSVEWFYENKMYEDAIVATIAIIRRFLLCGKLAPLKAFSKGKNFKLLLVEYDTQLQTKSLIFQNEPEIVTEEDKEELLAYASLIEGLILIDEWKKFVSTQINSEGHHHHHH | not soluble
2 | EAQTRVKLNFLDQIAKYWELQGSTLKIPHVERKILDLFQLNKLVAEEGGFAVVCKDRKWTKIATKMGFAPGKAVGSHIRGHYERILNPYNLFLSGDSLRCLQKPNLTSDTKDKEY | soluble
3 | MSLKLILNTQINTKLREIDISNETELIMSNDFPVNKIAMTGKVGYADMQGQRGTMEDALIVDSNIGIYAIFDGHGGHIVSSLSAQRIHERLQSLQNGSEFRELITQAVDSVVGELKEKKVLGGSTMCLVRVGQDKIEVANIGDSRCVAILKDGTQRQLSNDHKPTYRPEVERIREKGSFVSKGRVQGRLAVARAIGDFAVLGIESVIEFTEIDKDIVSRIVIGCDGLYDVVSNEDCLKICNENQSAVTTAYKLRDRAFQRGSTDNISVIVVDCLEGHHHHHH | soluble
4 | MLKLARPFIPPLSRNNAISSGIVLTSRRFQSSFTFLSNQSLLSKNQMKSKRKKGSKKAAYHRQPPEHEHTAPLIKQNKTITKKEHSDVRGSHLKKKRSDFSWLPRVPSTSHLKQSDMTTNVLYSGYRPLFINPNDPKLKEDTGSTLYEFAMKLEDLNEPLSPWISSATGLEFFSEWENIPSELLKNLKPFHPPKEKSMNTNELIHVSAKRNTLVDNKTSETLQRKMDEFSKRRGKGRKKSVVTLLQMKKKLEG | not soluble
5 | MSLDSKIDILIVVNMFLTGFDSKVLNTLYVDKNLMYHDLIQAYSRTNRVEKESKPFGKIVNYRDLKKETDDALRVFSQTNDTDTILMRSYEEYKKEFMDAYRELKMIVPTPHMVDDIQDEEELKRFVEAYRLLAKIILRLKAFDEFEFTIDEIGMDEQENEDYKSKYLAVYDQVKRATAEKNKVSILNDIDFEIEMMRNDTINVNYIMNILRQIDLEDKAEQREGHHHHHH | soluble
6 | MSLKIWGRKNSSNVRKALWIAHELGLDFESIDAGGAFGVVNEPHYRARNPNGLVPMLEDGDLTLWESNTIVRYLCAEYGTEQGWYLADPRQRALADKWMDWTTSSFATPFRPLFWGLLRTPEDQRDWVAINAAHKQCAQLLAIADETLASQPYLSGDQIGMGDIPLGSFIYAWFELPIERPDMYHLQAWYERLKQRPAYQAAVMTALTEGHHHHHH | soluble
7 | MAHHHHHHMSDAPHRQSSTPASSFLPPEPLCVADILSELLPFLLAAPQPRDGCPPSSSAQEPAESPVLLIPPTVASEHRVQVSIRGRRYETALEVALTYSLFFFVFFHWPFSEEDESSDAAGCASDVAHVKRAPRSVGDAVMAAASARDLPKEAHLLRHYTRVVEPVLRVFLDHWAAPLDAAAAAQGEGESAARAETAEAGDAARLPLLPPLPHPVRIAYDASTRVWKFEFAARLTAGAAAEARSGRQCDDSSAAVSLAAADGCAAVATDKLNNSPFLLLQSEYMGLLLVFLRRCAKVRAERRAAGEGAAACALAPYPSLPIRWEEMNYDEQLSVVQLIRRFGVVSLARTYTRPTAPETTSLYIGEEAAAATARVKVEGDACSLRARASESMGKQQQKIQQAASVAVDTAEVVKKERCINEDDFDGLVLSAKGCARCGMAEHSTEECHF | soluble
8 | MGSDKIHHHHHHMSDCQAKPETNYLSTSSGKYLTAFQRKLLLQNLQKSLVESYRQRIEIMLLADEGKTQRSICQTLGCCAATARHWTHIARSGMAHQWQDCPIGRPKAVNDQYLERLKELVNSSPRAHGYAFRRWTANWLGKHLAKEFGIEVSDRHIKRLLKQMGLSTLPKPSNVEQNSTEQVQGSKILICDLQSAGIPDDSEFLPINFAKLGKHLDIHGAKYICSVAYSATVQQYSGSFSFYRGISTLSSTS | not soluble
9 | MSLTIRDIAAKAGVSVSTASRALNNNPRISQATRERIQALAEAEGYLPNYNAKNLTAGESNAVGVVFATADRSQPENPFFIDILRGINAQLVQRDYVLSVAISKTADELLKNVKAMVAQGKIKRFVLLYAHQDDPIAAFLRQHHLRFVTIGQPDDNANDYFVDNDNLEAGIGGATFLLNQLQVKHPVFVESTHDWAYEQQRRQGYERVAATFNVEPLTCRLGELNRVRAFIKRHPEIDGIMATDDFNGIEFYRLMREQYGINHFPMVSFNQSLPNGLTDADLHSVNLFPEKMGSATVALLFSDKEPLETPTPGQIKIPFEIKEGHHHHHH | soluble
10 | MSLIVTLPEPTGPYEIGVTNFHWVDPDREEVEGVNGNRELMVRIWYPAELTEGGLKAPYAFDPSYTELVSKELPYYYKALLYSVIQTETHSFANVPVADHGAPYPVLILSPGYGNSNFMYTSQAETLASHGYIVCSIEHTYYTGLPTLFPDGRIVYEQIDLEDGRDLDEEITVWVDDVQFVLDQLQKWNESDPQNLLNGRLDMDRVGMLGHSFGGATTAQVMHQDPRIRAGVNMDGFLFGSLIEEGLDYPFMYMSGVEEVSMEGPDGKKVEEAELPEEFREFIADDKRRKEGALKNNGLYVVIENAEHESFSDWMLYSPLLLDRDLPMLDQINKTLLDFFDEHLKEGHHHHHH | soluble
11 | NLPNIVILATGGTIAGSAAANTQTTGYKAGALGVETLIQAVPELKTLANIKGEQVASIGSENMTSDVLLTLSKRVNELLARSDVDGVVITHGTDTLDESPYFLNLTVKSDKPVVFVAAMRPATAISADGPMNLYGAVKVAADKNSRGRGVLVVLNDRIGSARFISKTNASTLDTFKAPEEGYLGVIIGDKIYYQTRLDKVHTTRSVFDVTNVDKLPAVDIIYGYQDDPEYMYDASIKHGVKGIVYAGMGAGSVSKRGDAGIRKAESKGIVVVRSSRTGSGIVPPDAGQPGLVADSLSPAKSRILLMLALTKTTNPAVIQDYFHAY | soluble
12 | MTWADEVLAGHPFVVAHRGASAARPEHTLAAYDLALKEGADGVECDVRLTRDGHLVCVHDRRLDRTSTGAGLVSTMTLAQLRELEYGAWHDSWRPDGSHGDTSLLTLDALVSLVLDWHRPVKIFVETKHPVRYGSLVENKLLALLHRFGIAAPASADRSRAVVMSFSAAAVWRIRRAAPLLPTVLLGKTPRYLTSSAATAVGATAVGPSLPALKEYPQLVDRSAAQGRAVYCWNVDEYEDIDFCREVGVAWIGTHHPGRTKAWLEDGRANGTTR | not soluble
13 | YEVKVKLADIQADPNSPLYSAKSFDELGLAPELLKGIYAMKFQKPSKIQERALPLLLHNPPRNMIAQSQSGTGKTAAFSLTMLTRVNPEDASPQAICLAPSRELARQTLEVVQEMGKFTKITSQLIVPDSFEKNKQINAQVIVGTPGTVLDLMRRKLMQLQKIKIFVLDEADNMLDQQGLGDQCIRVKRFLPKDTQLVLFSATFADAVRQYAKKIVPNANTLELQT | soluble
14 | MSLKTHKKVKIPILLKIAKLPKSSFYEWKHKLENTIDKDKELKEMIVDIFSKSFETYGYRRLKMALKSKGYIVNHKKILRLTKELGVQCIKFRTKNGRYSSYKGTVGKIADNVLKRNFHSLQANKLWCTDVTEFKVNGQKLYLSPIIDLYNDEIISYSIQTNPNLNLTNSMLDKALKKVKNTNGFLIHSDQGFHYQHISWAKKLEENNITQSMSRKGNCLDNAIIENFFGLLKQEIYYGEKYNSVEELTKRIHKYIYWYNNIRIKEKLKGLSPVQFRKQSCYNIEGHHHHHH | not soluble
15 | SNAMKPDIYENNREGILCVYKNEKWLVCIKNWKPDNDIEGIAHLEIHHSTDEQFILSAGKAILITAEKENDKFNIELTLMEKGKVYNVPAECWFYSITQKDTKMMYVQDSNCSMDNSDFCDLSKEEIEYIQTNARKLFEK | soluble
16 | MKEHSIDIQLSHPDDLFHLFGSNERHLRLMEEELDVVIHARTEIVQVLGEESACEEARQVIQALMVLVNRGMTVGTPDVVTAISMVKNDEIDKFVALYEEEIIKDNTGKPIRVKTLGQKLYVDSVKQHDVTFGIGPAGTGKTFLAVTLAVTALKRGQVKRIILTRPAVEAGESLGFLPGDLKEKVDPYLRPVYDALYQILGKDQTTRLMEREIIEIAPLAYMRGRTLDDAFVILDEAQNTTIMQMKMFLTRLGFHSKMIVNGDISQIDLPRNVKSGLIDAQEKLKNIHQIDFVHFSAKDVVRHPVVAQIIRAYEYSTEVAHD | not soluble
17 | MACKRLVPGGEIERTRRVLDLFADSGSRVIRPQQPVDVLGSEGPAKVLGQVQNNVAVQYDHMVRGIGHDTGLESDQVCRLTERGICVRELLTLVFGDKALGAEHGDIRRGHTQDAGVL | not soluble
18 | MGSDKIHHHHHHMTQLELLLERIIDRVNVNLRHQKFDVGDYVRRQTPHLHYSKFYAFYGLSADDPVHFHFKNSSLAGSYLLGRVNVLHSALYKSDIRGDELKRKGQHFVCDGKMIPLHDDEVITIKDSFLNKTLVHSNSHDPESPEEFTIRNTVAMPYANIHGSLTEGSFIGSFATVDLSTIHNSVVRYFSYVQTGELVGKCVEPGQIWIKSGDELEFHYSFDKAILDKYISQEAGSCPTGVLMEFVEVRQEDFEEVFASGHMASGAGSASGASVSGYAVIKGDTVIGENVLVSQRAYLDNAWMGKGSNAQENCYIINSRLERNCVTAHGGKIINAHLGDMIFTGFNSFLQGSESSPLKIGDGCVVMPHTIIDLEEPLEIPAGHLVWGYIRNKADLAAHSISFEEFAKVDGEVTMGRMTFRGKGGPFLDSFKKRIKRILSENGAFFDGSEGTGHAQKGKNFTFNIIQPYQDGDPRGMYPTILIQPNNGS | not soluble
19 | MGSDKIHHHHHHMNLKTTLGLLAGRSSHFVLSRLGRGSTLPGKVALQFDKDILQNLAKNYEIVVVTGTNGKTLTTALTVGILKEVYGQVLTNPSGANMITGIATTFLTAKSSKTGKNIAVLEIDEASLSRICDYIQPSLFVITNIFRDQMDRFGEIYTTYNMILDAIRKVPTATVLLNGDSPLFYKPTIPNPIEYFGFDLEKGPAQLAHYNTEGILCPDCQGILKYEHNTYANLGAYICEGCGCKRPDLDYRLTKLVELTNNRSRFVIDGQEYGIQIGGLYNIYNALAAVAIARFLGADSQLIKQGFDKSRAVFGRQETFHIGDKECTLVLIKNPVGATQAIEMIKLAPYPFSLSVLLNANYADGIDTSWIWDADFEQITDMDIPEINAGGVRHSEIARRLRVTGYPAEKITETSNLEQVLKTIENQDCKHAYILATYTAMLEFRELLASRQIVRKEMN | not soluble
20 | MGSDKIHHHHHHMSVAEPNSHTQRNQPRPIRVGVIGVGNMGQHHTRVLSSMKDVELVGVSDINVERGLETASKYKVRFFEDYCDLLPHVEAVCIAVPTRLHYAVGINCLLAGIHVLIEKPIAASISEAESLVNAAAESQCILQVGHIERFNPAFRELSKVMKTEEVLALEAHRMSPYSDRANDVSVVLDLMIHDIDLLLELAASPVTKLTASGTRALDSGYLDYVTATLGFANGIVATLTASKVTHRKIRRIVAHCKNSFTEADFLKNEILIHRQTSASPVNDHRHYRQDGLIEKVYTTNIQPLSAELEHFVNCVHGGNQPSVGGEQALKALRLASLIEQMALEERVWNPLDWQSESRVQSLTQSV | not soluble
